Data reported in article PMC2959125 (Biochemistry, 2010).

Molecular target: the molecule itself
Assay: crystal structure

Protein | binding result
N-acetyl-L-ornithine transcarbamylase from Xanthomonas campestris, K302A mutant (enzyme) MSLKHFLNTQDWSRAELDALLTQAALFKRNKLGSELKGKSIALVFFNPSMRTRTSFELGAFQLGGHAVVLQPGKDAWPIEFNLGTVMDGDTEEHIAEVARVLGRYVDLIGVRAFPKFVDWSKDREDQVLKSFAKYSPVPVINMETITHPCQELAHALALQEHFGTPDLRGKKYVLTWTYHPKPLNTAVANSALTIATRMGMDVTLLCPTPDYILDERYMDWAAQNVAESGGSLQVSHDIDSAYAGADVVYAKSWGALPFFGNWEPEKPIRDQYQHFIVDERKMALTNNGVFSHCLPLRRNVAATDAVMDSPNCIAIDEAENRLHVQKAIMAALVGQSRP | binds
N-acetyl-L-ornithine transcarbamylase from Xanthomonas campestris, K302R mutant (enzyme) MSLKHFLNTQDWSRAELDALLTQAALFKRNKLGSELKGKSIALVFFNPSMRTRTSFELGAFQLGGHAVVLQPGKDAWPIEFNLGTVMDGDTEEHIAEVARVLGRYVDLIGVRAFPKFVDWSKDREDQVLKSFAKYSPVPVINMETITHPCQELAHALALQEHFGTPDLRGKKYVLTWTYHPKPLNTAVANSALTIATRMGMDVTLLCPTPDYILDERYMDWAAQNVAESGGSLQVSHDIDSAYAGADVVYAKSWGALPFFGNWEPEKPIRDQYQHFIVDERKMALTNNGVFSHCLPLRRNVRATDAVMDSPNCIAIDEAENRLHVQKAIMAALVGQSRP | binds
N-acetyl-L-ornithine transcarbamylase from Xanthomonas campestris, K302E mutant (enzyme) MSLKHFLNTQDWSRAELDALLTQAALFKRNKLGSELKGKSIALVFFNPSMRTRTSFELGAFQLGGHAVVLQPGKDAWPIEFNLGTVMDGDTEEHIAEVARVLGRYVDLIGVRAFPKFVDWSKDREDQVLKSFAKYSPVPVINMETITHPCQELAHALALQEHFGTPDLRGKKYVLTWTYHPKPLNTAVANSALTIATRMGMDVTLLCPTPDYILDERYMDWAAQNVAESGGSLQVSHDIDSAYAGADVVYAKSWGALPFFGNWEPEKPIRDQYQHFIVDERKMALTNNGVFSHCLPLRRNVEATDAVMDSPNCIAIDEAENRLHVQKAIMAALVGQSRP | binds
